Key:
[1] = target: base-linker-pTp conjugate (compound 9); experiment: phage crosslinked to biotinylated base-linker-pTp conjugate, captured on streptavidin beads, titered by direct infection with the beads
[2] = target: base-linker-oligodeoxynucleotide conjugate (compound 8); experiment: phage crosslinked to biotinylated base-linker-oligodeoxynucleotide conjugate in EDTA, captured on streptavidin beads, titered by direct infection with the beads
[3] = target: base-linker-oligodeoxynucleotide conjugate (compound 8); experiment: phage crosslinked to biotinylated base-linker-oligodeoxynucleotide conjugate, captured on streptavidin beads, titered after DNase I release
[4] = target: base-linker-oligodeoxynucleotide conjugate (compound 8); experiment: phage without acid peptide incubated with biotinylated oligodeoxynucleotide-peptide B conjugate, captured on streptavidin beads, phage titering

Row | Substance | efficiency of phage immobilization [1] [%] | efficiency of immobilization [2] [%] | true immobilization efficiency [3] [%] | percent of phage immobilized [4] [%]
1 | acid peptide A-pIII fusion displayed on acid helper phage (M13K07 helper phage with the acidic peptide A and a C-terminal GGC extension inserted at the N-terminus of pIII) (from UniProt P69168 1-3) | 10 | 10 | 80 | –
2 | wildtype pIII protein on phage produced with wildtype M13K07 helper phage (from UniProt P69168 19-424) | – | – | – | 0.3
